Laboratory results: the supplement of paper PMC10567573
± gives the standard deviation.

Assay: protein stability index of a GFP-peptide fusion (GPS, HEK-293T) (PSI 1-6); higher = more stable
Conditions: c terminus: a fixed tail appended
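Note: 24-mer peptide tiles fused after GFP, lentivirally expressed, FACS-sorted into six equal bins by GFP/DsRed ratio, decoded by Illumina sequencing, PSI is the read-weighted mean bin number.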

| Sequence | protein stability index (treatment: DMSO) | protein stability index (treatment: MLN4924 1 uM, 8 h) |
| --- | --- | --- |
| FWNQGLTWKVLFCSMSATFTLNFF [CLCN6] | 3.31 ± 0.5 | 3.17 ± 0.21 |
| LSPAGSSQEAADTPDTRHPCSLGS [YJU2B] | 5.24 ± 0.21 | 5.3 ± 0.23 |
| MGWKKACDELELHQRFLREGRFWK [ZMYND11] | 2.52 ± 0.19 | 2.99 ± 0.18 |
| VRLKPALQRLDFSVRGYMMSKQRE [RETREG3] | 2.64 ± 0.48 | 2.7 ± 0.44 |
| LELLVNNGADVNIQSKDGKSPLHM [ANKRD44] | 4.06 ± 0.23 | 4.01 ± 0.3 |
| DGFFYFFHGTRQYKFDPKTKRILT [MMP1] | 2.14 ± 0.48 | 2.28 ± 0.23 |
| MSYDEISQLRLVCKRMDLVCQRML [FBXO28] | 2.43 ± 0.34 | 2.25 ± 0.36 |
| VDMECQTDAFLDRPPTPLFIPAKT [RSPH3] | 4.01 ± 0.1 | 4.19 ± 0.061 |
| LYKSLKTLSAELVPWLNLKKQDEN [CEP70] | 2.37 ± 0.49 | 2.03 ± 0.37 |
| RRCGKCFCDRCCSQKVPLRRMCFV [ZFYVE21] | 2.31 ± 0.45 | 2.31 ± 0.39 |
| QRLLGEDKFQWLAGLAPPSLFARA [ANKRD9] | 2.59 ± 0.12 | 2.66 ± 0.28 |
| KFLVGTVGSDPLIKSDEECRDLVD [KLHL20] | 4.41 ± 0.78 | 4.14 ± 0.47 |
| TVFYIPEDHKPGTFPKALTNGSFS [DLC1] | 2.86 ± 0.14 | 3.11 ± 0.26 |
| LYPSLGAGYRLGPAQPGADSSFPP [TBX6] | 3.38 ± 0.039 | 3.39 ± 0.24 |
| VKMLGSPVDSVLFYAITTLHNLLL [CTNNB1] | 2.47 ± 0.59 | 2.48 ± 0.6 |
| NYFSAMYSSEDSTLASVPPAATFG [ELF3] | 3.06 ± 0.3 | 3.17 ± 0.43 |
| GKEVVKQLEEGLKDTDLARVRRFQ [M1AP] | 4.58 ± 0.35 | 4.62 ± 0.2 |
| ELFHTIDTHNTNNLDTEELCEYFS [NECAB1] | 3.41 ± 0.28 | 3.47 ± 0.1 |
| TLPAGADFLMCYSVAEGYYSHRET [CASP6] | 2.5 ± 0.15 | 2.51 ± 0.4 |
| DDDDNLPQLKKESELPFVPNYLAN [ANKRD40] | 4.77 ± 0.12 | 4.84 ± 0.076 |
| MTDGILGKAATMEIPIHGNGEARQ [ARFIP2] | 4.58 ± 0.16 | 4.57 ± 0.13 |
| PWNCILLTKDEAAAHLKLTSIEEG [IQUB] | 3.12 ± 0.1 | 3.44 ± 0.07 |
| NGLEDIDRILERIEDSTGLNRPGP [TCF25] | 4.48 ± 0.21 | 4.75 ± 0.21 |

| Sequence | protein stability index (treatment: DMSO) | protein stability index (treatment: MLN4924 1 uM, 8 h) |
| --- | --- | --- |
| LKLKNKLLQADREHLPVKPDTMEK [DENND6A] | 4.35 ± 0.34 | 4.33 ± 0.22 |
| DGLRLLGARARGVAMLGVFLVSAV [SOAT2] | 2.56 ± 0.53 | 2.49 ± 0.38 |
| CRRSIRSALGRQRLQDISSLPLPQ [SPSB4] | 3.03 ± 0.38 | 3.33 ± 0.43 |
| DGQYLGVAFRGLKGKKLYPVVSAV [SPSB4] | 2.08 ± 0.38 | 2.51 ± 0.49 |
| QRAWVRALNEQACRNGSSIQIAFE [C2CD2L] | 2.46 ± 0.34 | 2.69 ± 0.16 |
| DIRAKKIASIADVCESMKEQLLVL [HNF4A] | 2.5 ± 0.35 | 2.26 ± 0.22 |
| ELVGSGYRMSLVKRRFATGMYLVS [FCHO1] | 2.46 ± 0.64 | 2.26 ± 0.43 |
| VQQQKLAEERRRQNLQEEKERKLE [FAF2] | 4.87 ± 0.15 | 5.19 ± 0.43 |
| GTTLRGRSDADLVVFLSPLTTFQD [OAS1] | 2.18 ± 0.4 | 2.28 ± 0.31 |
| SKLEERFGPDSKSSALACTLPTLP [NCF4] | 4.04 ± 0.19 | 4.21 ± 0.17 |
| FWRIDEDYPVQVAPLSNGLCCAFS [WSB1] | 2.06 ± 0.43 | 2.41 ± 0.39 |
| HSAVARISRAQYNALTLTFQRAMH [STX11] | 2.08 ± 0.31 | 2.14 ± 0.19 |
| RRLYHLEGFQRCDVARQLGKNNEF [PSD2] | 2.61 ± 0.43 | 2.8 ± 0.16 |
| SPEPGTPAAPTPESFTVHFLPLNS [DNAAF3] | 3.55 ± 0.35 | 3.5 ± 0.22 |
| VPHNGSSEATLPAQMSTLHVSPPP [PDLIM4] | 4.87 ± 0.17 | 4.73 ± 0.19 |
| FSSERGPRMCRYVRERDRLGNEYP [CDC25A] | 2.93 ± 0.29 | 2.61 ± 0.58 |
| SIVAVGFHIFRTLEVNRLMGKLLQ [PKD2L1] | 3.03 ± 0.56 | 2.55 ± 0.5 |
| FSVVRRCVKLCTGHEYAAKIINTK [CAMK2B] | 2.1 ± 0.35 | 2.21 ± 0.19 |
| QKGSHPMCKEHEDEKINIYCLTCE [TRIM63] | 4.64 ± 0.22 | 4.67 ± 0.17 |
| NLLSIALYLLSGSIIAVAMQRGAR [POMT2] | 3.2 ± 0.36 | 3.34 ± 0.13 |
| EGLRRRRGREAGPPQPMVPLAVEN [PBXIP1] | 5 ± 0.49 | 4.98 ± 0.23 |
| QPHHQPPNRAGAPGESLECPAELR [TRAF3IP2] | 5.42 ± 0.23 | 5.21 ± 0.23 |
| KLEEERAKLHDVELHQVAERVEAL [GNB5] | 5 ± 0.34 | 5.15 ± 0.18 |

| Sequence | protein stability index (treatment: DMSO) | protein stability index (treatment: MLN4924 1 uM, 8 h) |
| --- | --- | --- |
| HTFNAHAATDITGFGILGHSQNLA [SEPHS2] | 3 ± 0.35 | 3.04 ± 0.24 |
| LSEVKPPPPPPPAQTFLFQGQPVV [TRADD] | 3.89 ± 0.38 | 4.07 ± 0.2 |
| NLLLTYLIVTSLLLLPGLNQHGII [ARL6IP1] | 3.32 ± 0.47 | 3.25 ± 0.13 |
| NFSTFIKCIFTQFRIILGDFDYNA [PKD2L1] | 2.98 ± 0.36 | 2.94 ± 0.41 |
| AIVRKCRQKGTGKEYAAKFIKKRR [DAPK3] | 3.45 ± 0.24 | 3.81 ± 0.32 |
| ETTRNTTGIEESTDGMILGPEDLS [LARP4] | 5.47 ± 0.4 | 5.43 ± 0.28 |
| PEKEYQRQVWLLFEYPESSGPARV [KCNA1] | 2.59 ± 0.29 | 2.06 ± 0.33 |
| PTPPGQYFYPRGGGSGGGAGGAGG [JUNB] | 4.81 ± 0.15 | 4.5 ± 0.16 |
| DYSPYYKTIEELRDKILTATIENN [KRT13] | 3.17 ± 0.15 | 3.11 ± 0.16 |
| DALPGQSKRLAVPCKLEKMRILAH [TLE6] | 2.39 ± 0.18 | 2.4 ± 0.24 |
| RLSRRMASQHSYPLNRFSSVPLDP [CBY2] | 3.22 ± 0.27 | 3.45 ± 0.22 |
| YLELDRLVWRNSIRSSFISSLSFF [FBXO39] | 2.86 ± 0.37 | 2.95 ± 0.45 |
| LEKGADVNRKSVKGNTALHDCAES [FEM1C] | 5.18 ± 0.29 | 5.38 ± 0.28 |
| GGNKKSDGVKESSESTNTTIEDED [CAMK2A] | 5.7 ± 0.087 | 5.53 ± 0.26 |
| SSRLPQPSGAGKTVVGVPSGKVSS [ZC2HC1A] | 4.62 ± 0.13 | 4.81 ± 0.12 |
| QAWFGFAGTPGYLSPEVLRKEAYG [CAMK2B] | 2.55 ± 0.22 | 2.76 ± 0.22 |
| PVLSGAELEKAHLALIDYLTQKRS [VPS39] | 3.37 ± 0.26 | 3.38 ± 0.27 |
| ARPWTRDSASLPRKPSVPWQRQMD [RASAL3] | 2.73 ± 0.22 | 2.94 ± 0.42 |
| LLKTLYNSIKNEKLEWAIDEDELR [PSD2] | 2.61 ± 0.43 | 2.07 ± 0.32 |
| PKEPAPPNGSAAEPPTEAASREEN [PALM] | 5.57 ± 0.25 | 5.37 ± 0.43 |
| AEVWVSGTIFIRNVLLFKKQNPGK [RETREG3] | 2.68 ± 0.54 | 2.49 ± 0.35 |
| EAAEPPKTPPSSCDSTNAAIAKQA [KMT5A] | 5.42 ± 0.29 | 5.34 ± 0.13 |
| RRQARREAEADKPRRLGRLKYQAP [NOP53] | 4.5 ± 0.35 | 4.6 ± 0.24 |

| Sequence | protein stability index (treatment: DMSO) | protein stability index (treatment: MLN4924 1 uM, 8 h) |
| --- | --- | --- |
| HEKERPEHKSLESLADGGSASPIK [FANCE] | 5.49 ± 0.21 | 5.31 ± 0.25 |
| PLVKKHCDDSFTPQEKLWQQLRRG [CPOX] | 3.49 ± 0.21 | 3.57 ± 0.2 |
| SLNSTFGSTNLTGLFFPPQLNGTA [NFE2L1] | 2.52 ± 0.35 | 2.92 ± 0.38 |
| NSLDTTSWAWRGPGVLKVLWLTAS [LPCAT4] | 2.43 ± 0.62 | 2.25 ± 0.47 |
| EQCPVIDSQAPAGSLDLVPGGLTL [SPDEF] | 4.07 ± 0.23 | 4.24 ± 0.13 |
| SDLSRRSSSTMSKSEYMEIEEDMN [KCNA1] | 5.21 ± 0.33 | 5.38 ± 0.1 |
| SGITIPKPPKPPDKPLMPYMRYSR [SMARCE1] | 2.68 ± 0.25 | 3.32 ± 0.23 |
| ATIHGAIRLVCSRGNRLKTTSWGL [SCNN1D] | 2.46 ± 0.7 | 2.18 ± 0.24 |
| RKRTAHERAKELYSSGEFSSGRKW [INTS4] | 4.06 ± 0.32 | 4.08 ± 0.31 |
| YAYSNGIDYKTTTILLDGRRVRLE [RAB40C] | 2.68 ± 0.3 | 2.56 ± 0.34 |
| KASALNTKIRALQGSLENMSKLLK [CD207] | 2.22 ± 0.33 | 2.26 ± 0.32 |
| SFRRNVGRVLLANSTQADEGKTKK [FBXO34] | 4.71 ± 0.46 | 4.85 ± 0.35 |
| RSSGLVQRRTEASRNAADKERAAG [GOLPH3] | 5.11 ± 0.3 | 5.14 ± 0.33 |
| PDSHQKRPQHSHSNKKRPSLDGRD [ELOA2] | 5.33 ± 0.17 | 5.14 ± 0.21 |
| HMESRMVTETEETQEKKAESKEPI [SDE2] | 5.48 ± 0.17 | 5.46 ± 0.47 |
| LPHQSHRQRSSLAKINIVYQELNY [SCNN1D] | 2.54 ± 0.23 | 2.54 ± 0.3 |
| FLSLDIPIGELYGLSESSGPHTIS [ACSBG2] | 2.39 ± 0.4 | 2.47 ± 0.36 |
| AQTLHHKSCYNGRFQLLYVACGMV [DNAAF3] | 2.94 ± 0.63 | 2.39 ± 0.72 |
| EQEKEAQHKDQTAALPLAAEETAN [MAP2] | 5.66 ± 0.12 | 5.5 ± 0.4 |
| DLSGLPLQSSKNSYSFQNPSSFDP [RNF180] | 3.75 ± 0.065 | 3.78 ± 0.074 |
